One test has as its target T1, human serum albumin (human, UniProt P02768 25-609).
T1 construct: Negative control, coated at 1 ug/mL; also called HSA
Description: ELISA, plate coated with 1 µg/mL HSA, probed with antibody. As to the method: Antibodies were tested for uptake by incubating each with the human ovarian cancer cell line OVCAR3 that express mesothelin and membrane bound CA125. The parental line was used to generate an isogenic CA125 knockdown line via shRNA (referred to as OVCAR3-KO). Both Ab-3 and Ab-4 uptake were measured in replica in black 96-well microplates over the course of 24 hours measuring intracellular fluorescence on a Varioskan™ plate reader. […] Statistical analysis was done using a two-sided student's T-test.
Several studies have reported that antibodies that are bound by CA125 are negatively affected in eliciting humoral mediated immune killing as well as ADC-mediated killing of target cells (Kline J B, et. al. OncoTarget 8:52045-52060, 2017; Kline J B, et al. Eur J Immunol 48:1872-1882, 2018; Kline J B, et al. J Clin Oncol 5:15, 2018; Nicolaides N C, et al. Cancer Biol Ther 13:1-22, 2018; Nicolaides et. al. USPTO application 1698444). In an attempt to identify anti-mesothelin antibodies that naturally are not bound by CA125, we obtained a number of anti-mesothelin antibodies from academic and commercial sources (National Cancer Institute, Creative Biolabs, Novus, etc.) and tested them for CA125 binding. […] Recombinant mesothelin was used as a positive control and human serum albumin (HSA) was used as negative control. […]
On the technique in general: An ELISA detects its analyte on a solid surface through an enzyme-linked reagent.

In test [1] the target is T2, soluble human CA125 protein (human, UniProt Q8WXI7 1-14451, limits assumed).
T2 construct: Coated on the ELISA plate at 15 KU/mL; also called MUC16/CA125; soluble CA125
Description: ELISA, plate coated with 15 KU/mL soluble CA125, probed with antibody, anti-Fc-HRP detection. As for the experimental part:
FIG. 1A. Screening for anti-mesothelin antibodies not bound by the immunosuppressive CA125 protein; identification of MES-1 antibody (SEQ ID NO: 1 and 2). Briefly, 96-well ELISA plates were coated with 15 KU/mL of soluble CA125, 1 μg/mL of recombinant human mesothelin protein as a positive control and 1 μg/mL of human serum albumin (HSA) as a negative control and probed with 2.5 μg/mL of different anti-mesothelin antibodies to determine if they are bound by CA125. Wells were washed and detected for binding via a secondary anti-human or anti-rodent Fc-horseradish peroxidase (HRP) conjugated antibody and 3,3′,5,5′-Tetramethylbenzidine (TMB) substrate. Reactions were stopped with 0.1N H₂SO₄ and wells quantified using a multi-well plate reader (Varioskan™, ThermoFisher) at 450 nm. As shown, the antibody MES-1 consisting of SEQ ID NOs: 1 and 2 [Ab-3 (lane 3)] was not bound by CA125 while the other four anti-mesothelin antibodies tested were all bound by CA125. Values were determined from the average of triplicate wells. Statistical analysis was done using student's T-test. FIG. 1B. […] Both Ab-3 and Ab-4 uptake were measured in replica in black 96-well microplates over the course of 24 hours measuring intracellular fluorescence on a Varioskan™ plate reader. […]

B1: MES-1 antibody (antibody, human IgG1, kappa, V domains shown)
VH: EVQLVESGGGLVQPGGSLRLSCAASGFDLGFYFYACWVRQAPGKGLEWVSCIYTAGSGSTYYASWAKGRFTISRDNSKNTLYLQMNSLRAEDTAVYYCARSTANTRSTYYLNLWGQGTLVTVSS
VL: DIQMTQSPSSLSASVGDRVTITCQASQRISSYLSWYQQKPGKVPKLLIYGASTLASGVPSRFSGSGSGTDFTLTISSLQPEDVATYYCQSYAYFDSNNWHAFGGGTKVEIKR
notes: For the uptake assay the antibody carried the pHrodo dye; also called meso-Ab3; Ab-3
B1: the binding result (with human serum albumin; in test [1]) was “no binding (tested: 2.5 µg/mL)” in each case.

Source of the values: US20230398232A1 (NAVROGEN, published 2023).
